The data set can be described thus: yeast display, Sf9 membrane polyspecificity reagent, FACS + sequencing; frameworks hold sequencing errors. Put shortly:
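Galactose induction of a Saccharomyces cerevisiae BJ5465 synthetic nanobody display library ran 36–48 hours. The cells were then stained for 1 hour at 4 °C with 10% biotinylated, detergent-solubilized Sf9 membrane reagent, pulled down on streptavidin microbeads and FACS-sorted into low and high (top ~1%) gates on expression and reagent-binding fluorescence. Labels for polyreactivity follow the gate of origin.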
For “QVQLVESGGGLVQAGGSLRLSCAASGRIFPGYAMGLYRQAPGKERELVAAISKGGGSTSYADSVKGRFTISRDNAKNTVYFQMNSLKPEDTAVYFCAARQAWRWTYDYWGQGTQVSVSS”, the “polyreactivity (PSR sort gate)” value was “high polyreactivity”.
For the sequence “QVQLVESGGGLVQAGGSLRLSCAASGSTFYYNTLGWYRQAPGKERELVAAISRSGGSTYYADSVKGRFTISRDNAKNTVYLQMNSLKPEDTAVYYCAARIIGARNLYGYWGQGTQVTVSS”, the “polyreactivity (PSR sort gate)” value is reported as “high polyreactivity”.
With “QVQLVESGGGLVQAGGSLRLSCAASGFIFKSYAMGWYRQAPGKERELVAAITRGDNTNYADSVKGRFTISRDNAKNTFYLQMNSLKPEDTAVYYCAADRYTVRMDYWGQGTQVTVSS”, the “polyreactivity (PSR sort gate)” value was “high polyreactivity”.
Consider “QVQLVESGGGLVQAGGSLRLSCAASGSIFYVYAMGWYRQAPGKERELVADITTRDGDTYYADSVKGRFTISRDNAKNTVYLQMNSLKPVDTAVYYCAADLNAYPQRAYDYWGQGTQLTVSS”, for which the “polyreactivity (PSR sort gate)” value is listed as “low polyreactivity”.
For the sequence “QVQLVEAGGGLGQAGGSLRLSCAASGFTFYRYARGWYRQAPGKERELVAAISSSGGRTYYADSVKGRFTISRDTAKNTVYLQMNSLKPEDTAVYYCNVVRLQSYYGPFDYWGQGTQVTVSS”, the “polyreactivity (PSR sort gate)” value is listed as “high polyreactivity”.
With “QVQLVESGGGLDQAGGSLRLSCAASGRIFYYYPMGWYRQAPGKERELVAGIDSGDSTNYADSVKGRFTITRDNAKNTVYLQINSLKPEDTAVYYCAALHYGGYFSYYPYYYWGQGTQATVSS”, the “polyreactivity (PSR sort gate)” value is recorded as “low polyreactivity”.
As for “QVQLVESGGGLVQAGGSLRLSRAASGGSLRLYAMRWYRQAHGKERELVSAINDRSGSTYYADSVKGRFTISRDNAKNTVYLKLNRLKPEDTAVYYCYAYGTPPGSDGQYDYWGQGTQVTVSS”, the entry is “high polyreactivity”; as for “QVQLVESGGGLVQAGGSLRLSCAASGSIFYYYAMGWYRQAPGKERELVAAITSGGSTYYADSVKGRFTISRDNAKNTVYYQMNSLIPEDTAVYYCAAVFYAAYLRYVWYSYDYWGQGTQVTVSS”, “low polyreactivity”; as for “QVQLVESGGGLVQAGGSLRLSCAASGSIFYYFALGWYRQAPGTERELVAAISRSGGRTYYADSVKGRFTISRDNAKNPVYLHMNSLKPEDTAFYYCNTDGYYTTAKYGYWGQGTQVTVSS”, “high polyreactivity”.
“QVHLVESGGGLVQAGGSLRLSCADYGRTFSRYAMGWYRQAPGKERELVATINSRAGITNYPDTVKGRFTISRDNAKNTVYLQMTSLKPEDTAVYYCNRGRPGGPSWYHFDYWGQGSQVTVSS”: the “polyreactivity (PSR sort gate)” value was “high polyreactivity”.
Turning to “QVQLVESGGGLVQAGGSLRLSCAASGRTFLWNAMGWYRQAPGKERELVAAITSGGRTTYADSVKGRFTISRDNAKNTVYLQMNSLKPEDTAVYYCAAVSANQDFDYWGQGTQVTVSS”, the “polyreactivity (PSR sort gate)” value is reported as “high polyreactivity”.
As for “QVQLVESGGGLVQAGGSLRLTCAASGSTFVRYVMGWYRQAPGKERELVAAISRRGGSTYYADSVKGRFTISRDNANNTVYLQMNSLKPEDTAVYYCARTVGYRTLLESDSWGQGTQVTVSS”, the entry is “high polyreactivity”.
On to “QVQLVESGGGLVQAGGSLRLSCAASGNTFRWNAMGWYRQAPGKERELVAGISIDDGSNYADSVKGRFTISRDNAKKTVYLQMNSLTPEDTAVYDCNRDWALYVFGRHYHAYYSWGQGTHVTVSS”, for which the “polyreactivity (PSR sort gate)” value was “low polyreactivity”.
With “QVQLVESGGGLVQAGGSLRLSCAASGRIFDPHAMGWYRPAPGKERELVASSTRRGGSTYYADSVKGRFTSSRDIAKNNVYLQMNSLKPEDTSVYYCARPNLLSGDYWGQGTQVTVSS”, the “polyreactivity (PSR sort gate)” value is on record as “high polyreactivity”.
As to “QVQLVESGGGLVQAGGSLRLSCAASGITFYRNAMGWYRQATGKERELVAAITSGTSTYYADSVKGRFTISRDNAKNTVYLQMNSLKPEDTAVYYCAKRTPPGYYGFDYWGQGTQVTVSS”, the “polyreactivity (PSR sort gate)” value was “low polyreactivity”.
For the sequence “QVQLVESGGGLVQAGGSLRLSCASSGFNFVYYSMGRYRQAPGKEREFVAAITERGGSTDYADSVKGRFTISRDHAKNTVYFQMNSLKPEDTAVYYCIARDVTLWDDVYQQDGSGYWGQGTQVTVSS”, the “polyreactivity (PSR sort gate)” value is on record as “low polyreactivity”.
Regarding “QVQLVESGGGLVQAGGSLRLSCAASGGIFYTNAMGWYRQAPGKERELVAAISRSGGSTYYADSVKGRFTISRDNAKNTVYLQMNSLKPEDTAVYYCAARVYVYGYSYDYWGQGTQVTVSS”, the “polyreactivity (PSR sort gate)” value is “high polyreactivity”.
Regarding “QVQLVESGGGLVQAGGSLRLSCAASGSSFTNYGMGWYRQAPGKERELVAAISESGDTTYYADSVKGRFTISRDNAKNTVYLQMNSLKPEDTAVYYCNRAHGRSRYSRDYDSWGQGTQVTVSS”, the “polyreactivity (PSR sort gate)” value is listed as “low polyreactivity”.
In the case of “QVQLVESGGGLVQAGGSLRLSCAASGFTLKYNTMGWYRPAPGKERELVAAISRIGGRTYYADSVKGRFTISRDYAKNTVYLHKNSLKPEDTAVYYCAAVYRVCWRTYGYWGQGTQVTVSS”, the “polyreactivity (PSR sort gate)” value is on record as “high polyreactivity”.
For “QVQLVESGGGLVQAGGSLRLSCAASGITFTRYTMGWYRPAPGKERELVAAITGGSTYYADSVKGRFTISRDNAKNTVYLQMNSLKPEDTAVYYCAAAYESPYIQPLDYWGQGTQVTVSS”, the “polyreactivity (PSR sort gate)” value is recorded as “high polyreactivity”.
As for “QDQLVESGGGLVQAGGSLRLSCAASGLTFQYNTMGWYRQAPGKERELVARINWGGDSTYYADSVKGRFTISRDNAKNTVYLQLYSLKPEVTAVYYCAAPGYSGRYGYYTYYLYVYWGQGTQVTVSS”, the “polyreactivity (PSR sort gate)” value was “low polyreactivity”.
“QVQLVESGGGLVQAGGSLRLSCAASGITLSYNVMGWYRQEPGKEREFVAAITGGRTYYADSVKGRFTISRDNAKNTVYLQMNSLKPEDTAVYYCAADAPGHEYYYWGQGTQVTVSS”: the “polyreactivity (PSR sort gate)” value is given as “high polyreactivity”.
“QVQLVESGGGLVQAGGSLRLSCAASGIILDTYDMGWYRQAPGKERELVAVISWRGRTYYADSVKGRFTISRDNAKNTVYLQMNSLKPEDTAVYYCAAYSYRSVRWGWTSYDYWGQGTQVTVSS”: the “polyreactivity (PSR sort gate)” value is reported as “high polyreactivity”.
In the case of “QVQLVESGGGLVQAGGSLRLSCAASGIIFWYYAMGWYRQAPGKERELVAAISSGGSTTYADSVKGRFTISRDNAKNTVYLQMKSLKPEDTAVYYCAAVWLSLFKGWVDTHEYDYWGQGTQVTVSS”, the “polyreactivity (PSR sort gate)” value is “low polyreactivity”.
In the case of “QVQLVDTGGGFVQAGGSLRLSCAASGRTFPYYAMGLYRQAPGKERELVAAMTRGVRTQYADSVKGRFTISRDNAKNTVYLQMNSLKPEDTAVYYCAREDWGSYSDMDSWGQGTQVTVSS”, the “polyreactivity (PSR sort gate)” value was “low polyreactivity”.
Turning to “QVQHVESGGGLGQAGGSLRLSCAASGRTFDGNVKGWYIQAPGKERELVAAMTASGARTYYADSVKRRFTISRDNAKNTVYLQMNSLKPEDTAVYYCAAVCRRVSAWYYYWGQGTQVTVSS”, the “polyreactivity (PSR sort gate)” value is “high polyreactivity”.
As for “QVQLVESGGGLVQAGGSLRLSCAPSGRNYDRNAMGWYRQAPGKERELVARIDPGDDTNYADSVKGRFTISRDNAKNTVYLQMNSRKPEDTAVYDCASDPDYFLYRTAYYEFDYWGQGTQVTVSS”, the “polyreactivity (PSR sort gate)” value is given as “low polyreactivity”.
In the case of “QVQLVESGGGLVQAGGSLRLSCAASGFYGNAMGWYRQAPGKERELVAAITWSGGSTYYADSVKGRFTISRDNAKNTVYLQMNSLKPEDTAVYYCNKLQHRKYNGYDYWGQGTQVTVSS”, the “polyreactivity (PSR sort gate)” value is “high polyreactivity”.
As for “QVQLVESGGGLVQAGGRLRLSCAASGIILGRYAMGWDRQAPGKERELVAAISIRGTRTYYADSVKGRFTISRDNAKNTVYLQLNSLKPEDTAVSYCAAKTVLWGQGTQVTVSS”, the “polyreactivity (PSR sort gate)” value is “high polyreactivity”.
Turning to “QVQLVESGGGLVQAGGSLRLSCAASGRIFYFNAMAWYRQAPGKERELVAAISGSGGDTYYADSVKGRFTISRDNAKNTVYLQMNRLKPEETAVYYCAAEVYTWGQGTQVSVSS”, the “polyreactivity (PSR sort gate)” value was “low polyreactivity”.

Values taken from the nanobody polyreactivity screen of Harvey et al. (2022).
